According to US20160039904A1, “STABILIZED SINGLE HUMAN CD4 DOMAINS AND FUSION PROTEINS” (priority 2013, published 2016):

Tests used:
[1] = target: HIV-1 Env of isolate A07412VRC12A (HIV-1); assay: cell-based or functional assay
[2] = target: HIV-1 Env of isolate AE03 (HIV-1); assay: cell-based or functional assay
[3] = target: HIV-1 Env of isolate AE20 (HIV-1); assay: cell-based or functional assay
[4] = target: HIV-1 Env of isolate Bal.EC1 TC (HIV-1); assay: cell-based or functional assay
[5] = target: HIV-1 Env of isolate CAM0015BBY.EC3 (HIV-1); assay: cell-based or functional assay
[6] = target: HIV-1 Env of isolate CH110 (HIV-1); assay: cell-based or functional assay
[7] = target: HIV-1 Env of isolate CH114 (HIV-1); assay: cell-based or functional assay
[8] = target: HIV-1 Env of isolate CH117 (HIV-1); assay: cell-based or functional assay
[9] = target: HIV-1 Env of isolate CH119 (HIV-1); assay: cell-based or functional assay
[10] = target: HIV-1 Env of isolate CH120 (HIV-1); assay: cell-based or functional assay
[11] = target: HIV-1 Env of isolate CH64 (HIV-1); assay: cell-based or functional assay
[12] = target: HIV-1 Env of isolate CNE1 (HIV-1); assay: cell-based or functional assay
[13] = target: HIV-1 Env of isolate CNE11 (HIV-1); assay: cell-based or functional assay
[14] = target: HIV-1 Env of isolate CNE14 (HIV-1); assay: cell-based or functional assay
[15] = target: HIV-1 Env of isolate CNE15 (HIV-1); assay: cell-based or functional assay
[16] = target: HIV-1 Env of isolate CNE16 (HIV-1); assay: cell-based or functional assay
[17] = target: HIV-1 Env of isolate CNE17 (HIV-1); assay: cell-based or functional assay
[18] = target: HIV-1 Env of isolate CNE20 (HIV-1); assay: cell-based or functional assay
[19] = target: HIV-1 Env of isolate CNE23 (HIV-1); assay: cell-based or functional assay
[20] = target: HIV-1 Env of isolate CNE3 (HIV-1); assay: cell-based or functional assay
[21] = target: HIV-1 Env of isolate CNE30 (HIV-1); assay: cell-based or functional assay
[22] = target: HIV-1 Env of isolate CNE4 (HIV-1); assay: cell-based or functional assay
[23] = target: HIV-1 Env of isolate CNE40 (HIV-1); assay: cell-based or functional assay
[24] = target: HIV-1 Env of isolate CNE46 (HIV-1); assay: cell-based or functional assay
[25] = target: HIV-1 Env of isolate CNE47 (HIV-1); assay: cell-based or functional assay
[26] = target: HIV-1 Env of isolate CNE49 (HIV-1); assay: cell-based or functional assay
[27] = target: HIV-1 Env of isolate CNE59 (HIV-1); assay: cell-based or functional assay
[28] = target: HIV-1 Env of isolate CNE6 (HIV-1); assay: cell-based or functional assay
[29] = target: HIV-1 Env of isolate CNE64 (HIV-1); assay: cell-based or functional assay
[30] = target: HIV-1 Env of isolate CNE65 (HIV-1); assay: cell-based or functional assay
[31] = target: HIV-1 Env of isolate CNE66 (HIV-1); assay: cell-based or functional assay
[32] = target: HIV-1 Env of isolate CNE68 (HIV-1); assay: cell-based or functional assay
[33] = target: HIV-1 Env of isolate CNE7 (HIV-1); assay: cell-based or functional assay
[34] = target: HIV-1 Env of isolate CNE9 (HIV-1); assay: cell-based or functional assay
[35] = target: HIV-1 Env of isolate GS-015.EC12 (HIV-1); assay: cell-based or functional assay
[36] = target: HIV-1 Env of isolate GX2010.36 (HIV-1); assay: cell-based or functional assay
[37] = target: HIV-1 Env of isolate KNH1088.EC5 (HIV-1); assay: cell-based or functional assay
[38] = target: HIV-1 Env of isolate KNH1144.EC1 (HIV-1); assay: cell-based or functional assay
[39] = target: HIV-1 Env of isolate N1 1046.e3 PV (HIV-1); assay: cell-based or functional assay
[40] = target: HIV-1 Env of isolate PBL286.VRC36aPV (HIV-1); assay: cell-based or functional assay
[41] = target: HIV-1 Env of isolate YN192.31 (HIV-1); assay: cell-based or functional assay
gp140Con-s (HIV-1) = assay: ELISA (OD 450 nm) on Cons gp140 (gp140Con-s), sCD4Fc titrated [A]

## D1D2Fc (from UniProt P01730 26-203) (Fc fusion)
[1]
  IC50, neutralization in TZM-bl cell-based assay: 57 nM
  IC90, neutralization in TZM-bl cell-based assay: > 250 nM
[2]
  neutralization IC50: > 250 nM
  neutralization IC90: > 250 nM
[3]
  neutralization IC50: 50 nM
  neutralization IC90: > 250 nM
[4]
  IC50, neutralization in TZM-bl cell-based assay: 0.6 nM
[5]
  IC50, neutralization in TZM-bl cell-based assay: 41 nM
  IC90, neutralization in TZM-bl cell-based assay: > 250 nM
[6]
  neutralization IC50: 28 nM
  neutralization IC90: > 250 nM
[7]
  neutralization IC50: 23 nM
  neutralization IC90: 198 nM
[8]
  neutralization IC50: 27 nM
  neutralization IC90: > 250 nM
[9]
  neutralization IC50: 85 nM
  neutralization IC90: > 250 nM
[10]
  neutralization IC50: 104 nM
  neutralization IC90: > 250 nM
[11]
  neutralization IC50: 48 nM
  neutralization IC90: > 250 nM
[12]
  neutralization IC50: 197 nM
  neutralization IC90: > 250 nM
[13]
  neutralization IC50: > 250 nM
  neutralization IC90: > 250 nM
[14]
  neutralization IC50: 105 nM
  neutralization IC90: 248 nM
[15]
  neutralization IC50: 106 nM
  neutralization IC90: > 250 nM
[16]
  neutralization IC50: 11 nM
  neutralization IC90: 229 nM
[17]
  neutralization IC50: 11 nM
  neutralization IC90: 231 nM
[18]
  neutralization IC50: 65 nM
  neutralization IC90: > 250 nM
[19]
  neutralization IC50: > 250 nM
  neutralization IC90: > 250 nM
[20]
  neutralization IC50: > 250 nM
  neutralization IC90: > 250 nM
[21]
  neutralization IC50: 17 nM
  neutralization IC90: 211 nM
[22]
  neutralization IC50: 3.9 nM
  neutralization IC90: 24 nM
[23]
  neutralization IC50: 0.06 nM
  neutralization IC90: 0.5 nM
[24]
  neutralization IC50: 99 nM
  neutralization IC90: > 250 nM
[25]
  neutralization IC50: 152 nM
  neutralization IC90: > 250 nM
[26]
  neutralization IC50: 21 nM
  neutralization IC90: 224 nM
[27]
  neutralization IC50: 10 nM
  neutralization IC90: 220 nM
[28]
  neutralization IC50: 68 nM
  neutralization IC90: 192 nM
[29]
  neutralization IC50: 12 nM
  neutralization IC90: 113 nM
[30]
  neutralization IC50: 15 nM
  neutralization IC90: 115 nM
[31]
  neutralization IC50: 159 nM
  neutralization IC90: > 250 nM
[32]
  neutralization IC50: 9.7 nM
  neutralization IC90: 133 nM
[33]
  neutralization IC50: 19 nM
  neutralization IC90: 161 nM
[34]
  neutralization IC50: 9.9 nM
  neutralization IC90: 63 nM
[35]
  IC50, neutralization in TZM-bl cell-based assay: 0.2 nM
[36]
  neutralization IC50: 12 nM
  neutralization IC90: > 250 nM
[37]
  IC50, neutralization in TZM-bl cell-based assay: > 250 nM
  IC90, neutralization in TZM-bl cell-based assay: > 250 nM
[38]
  IC50, neutralization in TZM-bl cell-based assay: 4.8 nM
[39]
  IC50, neutralization in TZM-bl cell-based assay: 183 nM
  IC90, neutralization in TZM-bl cell-based assay: > 250 nM
[40]
  IC50, neutralization in TZM-bl cell-based assay: 87 nM
  IC90, neutralization in TZM-bl cell-based assay: > 250 nM
[41]
  neutralization IC50: 155 nM
  neutralization IC90: > 250 nM
gp140Con-s (HIV-1)
  EC50 (read off the curve): 1 nM
